Measured values from PMC9237840.

T1: GST-Rib-PSQ DNA-binding domain (Drosophila melanogaster, UniProt Q7KF43 363-414)
T1 sequence: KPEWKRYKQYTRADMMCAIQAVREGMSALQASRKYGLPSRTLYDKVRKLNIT

T2: CrebA full-length (Drosophila melanogaster, UniProt P29747 1-516)
T2 sequence: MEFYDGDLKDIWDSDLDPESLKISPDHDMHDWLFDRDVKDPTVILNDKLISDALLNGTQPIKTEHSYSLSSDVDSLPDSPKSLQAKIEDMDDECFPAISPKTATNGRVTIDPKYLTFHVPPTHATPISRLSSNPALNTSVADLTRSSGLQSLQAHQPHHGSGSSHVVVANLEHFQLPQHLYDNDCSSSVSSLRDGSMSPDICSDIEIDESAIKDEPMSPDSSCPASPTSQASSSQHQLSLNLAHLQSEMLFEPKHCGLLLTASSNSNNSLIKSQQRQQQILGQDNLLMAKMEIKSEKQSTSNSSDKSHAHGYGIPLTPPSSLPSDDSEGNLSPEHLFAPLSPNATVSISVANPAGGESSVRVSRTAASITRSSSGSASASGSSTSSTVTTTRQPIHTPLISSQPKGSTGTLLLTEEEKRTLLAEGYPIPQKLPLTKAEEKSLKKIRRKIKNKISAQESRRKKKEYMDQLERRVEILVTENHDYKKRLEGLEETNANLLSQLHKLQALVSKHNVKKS

T3: Ribbon (Rib) full-length (Drosophila melanogaster, UniProt Q7KF43 1-661)
T3 sequence: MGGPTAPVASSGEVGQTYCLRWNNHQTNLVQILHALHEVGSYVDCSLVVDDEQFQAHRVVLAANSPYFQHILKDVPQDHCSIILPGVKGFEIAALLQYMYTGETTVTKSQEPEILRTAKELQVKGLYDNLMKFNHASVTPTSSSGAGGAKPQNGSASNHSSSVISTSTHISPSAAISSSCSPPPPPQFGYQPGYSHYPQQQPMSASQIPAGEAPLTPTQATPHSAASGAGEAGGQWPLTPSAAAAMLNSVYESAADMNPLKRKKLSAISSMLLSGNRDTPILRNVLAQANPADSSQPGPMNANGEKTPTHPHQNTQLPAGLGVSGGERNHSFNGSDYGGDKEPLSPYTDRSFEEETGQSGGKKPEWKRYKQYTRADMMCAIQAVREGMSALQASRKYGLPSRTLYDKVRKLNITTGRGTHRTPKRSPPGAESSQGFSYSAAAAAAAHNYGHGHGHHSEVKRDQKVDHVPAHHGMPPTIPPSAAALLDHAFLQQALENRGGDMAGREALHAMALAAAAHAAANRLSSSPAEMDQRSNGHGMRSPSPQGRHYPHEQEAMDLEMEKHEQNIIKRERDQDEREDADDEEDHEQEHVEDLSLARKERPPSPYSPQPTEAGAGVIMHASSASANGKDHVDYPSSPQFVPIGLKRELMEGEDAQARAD

B1: RpL6 (dsDNA)
DNA 1: CCCTGGTCACACCGCTCTAGACATAACCTTCCTTTTCCAATAATTTTTGT
DNA 2: ACAAAAATTATTGGAAAAGGAAGGTTATGTCTAGAGCGGTGTGACCAGGG
B2: RpS3 (dsDNA)
DNA 1: AACGTGTCTCGCGCGGGCACACTGGCCTCTTTCTTTTCTGCGCACCACGT
DNA 2: ACGTGGTGCGCAGAAAAGAAAGAGGCCAGTGTGCCCGCGCGAGACACGTT
B3: RpS10b (dsDNA)
DNA 1: ATCCCTTCCGTTTCCCTTTCTTTTCGTCTTCACGTTTCCGGTGAGTGCGT
DNA 2: ACGCACTCACCGGAAACGTGAAGACGAAAAGAAAGGGAAACGGAAGGGAT
B4: RpS17 (dsDNA)
DNA 1: ACACAACCACCCTGGTCACACGGCATCCTTCTTTTTCTTTCGTTTCCGGC
DNA 2: GCCGGAAACGAAAGAAAAAGAAGGATGCCGTGTGACCAGGGTGGTTGTGT
B5: RpS17* (T to G in TC-rich motif) (dsDNA)
DNA 1: ACACAACCACCCTGGTCACACGGCATCCGGCGGGGGCGGGCGGGGCCGGC
DNA 2: GCCGGCCCCGCCCGCCCCCGCCGGATGCCGTGTGACCAGGGTGGTTGTGT
B6: RpS18 (dsDNA)
DNA 1: GGCAGCCACATTAATTCGGCCTTCTTTTCTTTTCCCGTTTCCGGTGAGTG
DNA 2: CACTCACCGGAAACGGGAAAAGAAAAGAAGGCCGAATTAATGTGGCTGCC
B7: RpL7A (dsDNA)
DNA 1: AACTGCCACTTCCTTTCTTTTTCGTTCCACGTTTCCGGTGAGTGCATGTG
DNA 2: CACATGCACTCACCGGAAACGTGGAACGAAAAAGAAAGGAAGTGGCAGTT
B8: RpS27A (dsDNA)
DNA 1: TTCAACTTCCTGTCACGCTGTGTGTGTGTTCTTTCTTTCCTTTGATTCTG
DNA 2: CAGAATCAAAGGAAAGAAAGAACACACACACAGCGTGACAGGAAGTTGAA
B9: RpL11 (dsDNA)
DNA 1: CGCGGCCACACTATCCTTTCCTTCTTTTCTTACAAGTTTCCGGTGAGTGC
DNA 2: GCACTCACCGGAAACTTGTAAGAAAAGAAGGAAAGGATAGTGTGGCCGCG
B10: RpL17 (dsDNA)
DNA 1: ACTGCCATTTCCTTTCTTTTTCGTTCCACGTTTCCGGTGAGTGCATGTGC
DNA 2: GCACATGCACTCACCGGAAACGTGGAACGAAAAAGAAAGGAAATGGCAGT
B11: RpL19 (dsDNA)
DNA 1: TTCCGGCTGTCAAATTTTTCTTTCTTTCCTAGCCACGACGAGGTCGACAG
DNA 2: CTGTCGACCTCGTCGTGGCTAGGAAAGAAAGAAAAATTTGACAGCCGGAA
B12: P24.1 (dsDNA)
DNA 1: CCGATAGCATATACGTGGGTCCGCAGTGC
DNA 2: GCACTGCGGACCCACGTATATGCTATCGG
B13: TSN-2 (dsDNA)
DNA 1: ATCTGATTTGGTGACGTTGGCACCCTGCA
DNA 2: TGCAGGGTGCCAACGTCACCAAATCAGAT

Biological target: T1, GST-Rib-PSQ DNA-binding domain
Test: EMSA

Binder	binding result
B1	binds
B2	binds
B3	binds
B4	binds
B5	binds
B6	binds
B7	binds
B8	binds
B9	binds
B10	binds
B11	binds

Biological target: T2, CrebA full-length
Test: EMSA

Binder	binding result
B12	binds
B13	binds

Biological target: T3, Ribbon (Rib) full-length
Test: EMSA

Binder	binding result
B1	binds
B2	binds
B3	binds
B4	binds
B5	binds
B6	binds
B7	binds
B8	binds
B9	binds
B10	binds
B11	binds
